Read-outs that look alike come from different tables or passages of the source.
Legend:
pro-HB-EGF on Vero cells [1] = test: Schild regression from inhibition of diphtheria toxin cytotoxicity on Vero cells
pro-HB-EGF on Vero cells [2] = test: as above; remark: listed apart in the source
pro-HB-EGF on Vero cells [3] = test: ratio of Kd values from Schild regression (Vero cytotoxicity)

Question: Which Kd (pro-HB-EGF on Vero cells [1]) does the source give for “CRM197 (natural mutant of diphtheria toxin comprising the G52E mutation) (from UniProt P00587 26-560) (ligand)” here?
Answer: 3.1 nM

Question: What about the Kd (pro-HB-EGF on Vero cells [2]) of the same molecule?
Answer: 3.1 nM

Question: What does the source list for “wild-type DTR protein (DTRWT) (from UniProt P00587 405-560) (ligand)”?
Answer: fold lower affinity for HB-EGF and pro-HB-EGF against CRM197 (pro-HB-EGF on Vero cells [3]): 2 fold; Kd (pro-HB-EGF on Vero cells [1]): 6.5 nM; Kd (pro-HB-EGF on Vero cells [2]): 6.5 nM

B1: Clone 1D6 (DTR carrying the mutations Y380K/Q387E/L390T) (designed binder)
chain: MGKSPGHKTEPFTHDGYAVSWNTVEDSIIRTGFQGESGHDIKITAENTPLPIAGVLLPTIPGKLDVNKSKTHISVNGRKIRMRCRAIDGDVTFCRPKSPVYVGNGVHANLHVAFHRSSSEKIHSNEISSDSIGVLGYQKTVDHTKVNSKLSLFFEIKS
Question: For B1, which Kd (pro-HB-EGF on Vero cells [2]) is on record?
Answer: 0.025 nM
